Results as given in the DeepSol protein solubility set.

Assay: soluble on expression in E. coli; label from the status in PepcDB or PDB records

| Sequence | soluble on expression in E. coli |
| --- | --- |
| MAHHHHHHMRTSDARPASPSAAPPQSRKYQLSQRPLQLPRPPPRRFLEHPHHNLLPCTSDVKRLMENEYELRRVVRDVLLERLGMEGSHVEPPLRLCTEDSAEVTASPFCAVASVSTPLSSAGESAKQPRCAHDTGLRSMRAPDVDDIAGSSQPTWLMPWLQRLRMEQEKQLRQMRKMLVVARRSVSPDSSDVDARASSLMKTTGEARDDTRTAEPPHALLWQRHRCLPPADRPEAVEACSTLRAMQETMQAQSTQLARLEELLQETLIPDTARRTSHGAGALPLPSPSVHQVEAAAAARANHTGHRSRSNDTVLPTLTHTAASPKKNVRRAVPSRSGCSADVPAAAAAAAAATSSRVSTCVSAPSPPPRLHPEKRTLCGGVH | not soluble |
| MAHHHHHHMRTSPLWRLRMTSRPLSLERVFVINLDRRPDRWAAIQAVCARAGLPAERTERVPAVEGSRLDVNAVHHCGFVSALGLRRLKEPPEHHIWGMDLNKAALGCALSHIHLWARIAALGKVSNISAEAPAATLPKQCFLVLEDDSTFADSDDNGSDSPAASPSLPFLDQLQRRMNSVPPDWELVYVSGLDTAKQCLHMQVAKGVARVPQYHRTTNAYLVTPQGARRLLATCVPLTFQLDTAMTMNVGYPPGVVGVAGAQTLPHVLDPVCYTLQPPLMQQAAQLDTDIQH | soluble |
| MAHHHHHHMSDVIKLCEAEELKELFIKEYNEYLKLIKNVELYYEKLEINWKKFHLFYQQNKKDPFEYHKEKNKHNKIKKVQNKKKNINIHSDYQSIEKYFKMIQKKEIQNNCHYYKKFDYDKDSFILFTLKKNVNNAVELYININIEKLNKIKNYLLNYINDFCKRQINQIINLIILCEIKLNNLYISQKNHFTNNNIKIKHIHLIKNIIHFNQQFIFEVTKNLIPFFTNFNIFSSPDYFNYQFNYFNNCVEIMGE | not soluble |
| MAHHHHHHMSDVSIYALRGTSALYEVLGVSRNATQREIRQGYYRLAVLYHPDKNPEGSDIFKEVCFAHGILSDPEQRALYDSGTLRAELESRARACDPSMDPGVELSPEDLRVFVDRVRQTQEANRQVQSTFELRREEEMKRRAEFDAKNPSFKAEYEQARHLRQHGCRGSTSAAHARASATADLSKTVPPKVRTSAEVLAELQREEEERLYGNPGIGSVDSSSSKRAESDGLSTKHHMMSHYRATHREASGAESLSNSYSGGSTAATVRRRQLETTRLPFVRAHCETPQYSETISATVQAYANYDYLTFVEGGSMDHGELEGAIMADALGNYDRHH | not soluble |
| MAHHHHHHMSEAALKREIALQEASDVVDNKSRVLPKSPADTRERTHEVVAATEPFEHPISLRSKVSAYVTLALLFLFARLRESYRQFFPNDESHVRPGYAPIVKDFDHYWNRRFYRRVRDCFMRPIDSRPSRVIGVMERVSKDNNQTFEYSGRIVPAVNMGSYNYLGFAEDTQSITHEVLDSIDDYGLASCSAPQGLGQSALVSRLEHEFAEFLGKEDAIVCGMGFATNFRGLPTLFGKETLVLSDSLNHSSLVNGVRSSGAKVKVFQHNHFGQVEKCLREGVVLGQDPCGEYKPYKRIVIIIEGIYSMEGEIVNLKKFVELKKKYKALLFVDEAHSIGAIGRTGRGVCEHTGVDPKDVDVLMGTFTKSFGSIGGYIAADKTLVRYLRQHSSIALHCDPLAPPCAQQVLSVLHVLLGKDGTDLGEKRIRQLKDNSSFFRRGLMDLGLVVLGDDSSPVVPVMCYSIGRLSALSRLCLERGVAIVIVGYPATPLLQGRVRFCVSACHTREDLQRTLDVIRELKGYVCMEDSTNPLR | not soluble |
| MAHHHHHHMSEALTPPDSWSHGHPDVNAELKLLRGAVAQALVEARQSSDFCRRIQHDISEYFQSEQRRRVQSGDSIESEQFIPNVMASVDGHLAEFESFIIGRVREELENKVDKDLSEKFDSYRMQLEHLRQQEEEQEARLRFILEDAVKMNCELRNEMKWCASELWDRVSAMEEKLKFMATRTHTNAGGKDVMDLGLPNALREVIGILTLLSEGLEVERELHNEERQRWMSLMSRAVEKIRLLGERDEALEANLQELRQVAAAIQHRFGEFSGFVVDFWHRLEMMGSPSVAVEDAACEGSLSMYSKAGICAKKQMDDFMKELHEVGVALRALQVEHVGFKDILDSNTVNITEIRRNVEALAVGAKLIAEERERIDREESSLDLQYLIRSTPRDGNECEGSTGTPRRGNLSLRKQWQVAHLPTLELLHGKICNIPISHAFRLWAAWASGRRQLRRDKTMVHEPQEDPDTNSLGSRK | not soluble |
| MAHHHHHHMSGAGRKHRAKHLTQQYLDASGWVGPKEGERLAICMESPHGQHVRVLLLVHPNSAPASSSTEAPAPDGSSSSDAPHGAKESEAGVSASPPSAAPLLEVEQVVHLPRKFHKVIWLSIKDVVVIADGTVSFKPSPEQVESFLKDPRNKGWRERVATAQHRAEDQRAALQRMPHYAATAQTTTSVLTGPQVRSGVRATANGTSEQDSEGSEGEADDMRNPNWRNIKHQQHFFYGLGDDSDEIEEEEDA | not soluble |
| MAHHHHHHMSRYVKYFVQAKRLDKRKRKFGQMDFLELSKELSIPFPLRERNQPKHLDLSKYLNIKVGDLVKVLYGPYKDKEGIVLNINTKRNTVIVDGCNMKKSAWNVTKKNAGSIITQEMPIHITNVAILDPISKKATVVKRRYMMHGECVRISKISGCAMPEPVSVQALKEQNNYELFIHKKKTGPPIKDIYAERDSKNFNLLKKIAYEIKRRRFYEMKNFFRDASPGKGSASPGGGSASLGEGSSSLEG | not soluble |
| MAHHHHHHMSSRIGHAGTGMPTRGIASFPNSPPAVRNSCSTADTEGFGVSMESTIFTGTFSTAACAHAPTRRTVEAREQTSTVLDHLVTHIVDVPFFLARNAEERAHGCSLSLATAACPGTKLVMRNPRRRLISHSSQTHGAPASSHWPKVLFVPDSSSQRLAAPP | not soluble |
| MAHHHHHHMSTLRHSHEPSPYVQKGEDLSGQKLTPTIKSYRNMEFLNSYSGRMIRILCEFEEPKQRLQQHFIRTTVLFFGSARSMTQAQYDSTVQDIHSKLAAATDDSTKASLQNKLACLKKTQWMCKWVDVVENLARMVAEFSQKEQDMIIRSFRHIPDYFRLTPEDGSESLDDLQKRFHDLVVTTGGGPGFMEAANHGAESVPGAVTMGMGISLPFENGLNPHVTKGLAFEFHYFFTRKFWMMYSCRAIVIAPGGFGTLDEMFELLTLKQTKKIPSLPVVLLGKEFWQTVVNWQALANYGVISQEEIDSLLFTDSAEEAVEHIKDFYHRLASDSPSTE | not soluble |
| MAHHHHHHMSTNRVATVVAGLDGANPVKRERHPAWYPPLKLDGNGLKVMNSLTETLEDFAPRDGRVVRWYTCGPTVYDLSHMGHARAYLTFDIIRRIMEDYFGYSVIYQMNITDIDDKIIKRARVNKLLVDFKEEELRHSDVAKLMAFTAEAVAAAESGLAKRKAALVEPIAKGTNSRAKADREEKLLEVQLKESQLVETKVKIAAAKDDFAALFAAASGVNGDLLDERSGHSVSDQQIFEDHARKYERAFFEDMQRLGIREPDIVTRVTEYVPQVVEFVQKIIDNGFAYAGETSVFFDTEAYIRAGHDYPKLKPGGDRNTTEDEMAEGEGVLSKGIEGEKRSPNDFALWKFSKPGEPRWPSPWGEGRPGWHIECSVMASDILGENMDIHSGGWDLKFPHHDNECAQSEACNLHSQWVNYFLHCGHLHIKGLKMSKSLKNFITIRQALDELGVTARTMRLLFLANPWNKPMNFSDQSLDEAKEKERVLRAFFGSVDIVLRADNWKATQGVNKHDRELLSKWVEAEAAVHAALQDNFDTVVALQQLMSLVAATNQYLLSGERPSATLVRKVGCYVTKMFRIFGVVEGSDDVGLQKQGSDDGEARFIEVVNTLVRFRDEVRNAAKDHKVVAGFLPLCDKVRDEWLVDAGVRLEDNPAGPTTWKSDEPALLQKELAERRAQQEGDRQRRLANQAETKRKLVEKWRQFTYPPSEYFRRQDEQRVEKKYTAYDDVTGLPTMTAAGEEVSEKEAKKLSKEQAKYAKSYDEFIGKGGVSWIQEQEAELASMVAELEGSK | not soluble |
| MAHHHHHHMSVPDLTAEELAYYASLRLEDPDEAALATFLADLEQVHEDHPSDTGAAPSSTVASASGKRGALLTSSRVPACERLDSSDVEGVPPQRRVASVDRQQPSAYAATGLAIRQISAKLFPAPRSATTDSGTRYGVTQVLEKDNLVGGVAGIADAALQTRCVELPARQLTSIAPVQCFLNATHVYLQHNALADLEGVELLSQLQVLVVHHNQLTSLAPLQQLECLSYLDVSHNNVSSSVDVLLRDELPCPSLKSLNLSNNPCWSRCGEAVSDGDGGERHRAYVQQICTACPLLERLDDVVVDDGEEVMQHSDNSTESDVKDVAERRSASAAGAAPSQAGGITVRRVHNSVEAARAASSRACVHDIHTRSSLAPPGSLVSGEAELSARPPRSAQVNKARLLEEEQARLVHQLFLRRAVGTAPGSAKAVDTVSTSPLHSNRSSTGSGHFHPGDAATEAPTEQKANQPADSTGDVSALYSTRGDILHLYHSLQFTQEVSQARLQRDVAAHWDDVSRVLQTVQALQQDRRRRIQQRLQEQTSAYTDSLIMLEKESFTKDLDRYRNSDGSRRAAPAGIHAAASAPAAPPAVDTPNGITAVAHTSAAVDGNCASKASSTSTHPPEKPKGKTKKGPSVPKPPPRR | not soluble |
| MAHHHHHHMSVPSLRRSDRSGDPTRDRVHYVRAQRQHLVRETRMLQMALEELQEEAERENTEEALMRRGIDTTHRELLRCLLHLALAEQDSTRGAAAASGAQAQYDETSAIICEVLRRYKHEQDAFTQEAKQRLESIREEARQACMNVGDTLAVPQGEHAHSSGVGSVVEATDCDSLRSALEALREMQAEVDEETEATLLSIGRTLFC | not soluble |
| MAHHHHHHMSYYDKSDKIGYDDTDKELNEELEEMLARTPPHIQRHLQHRIHDGILQRMKEDTARRCWEFIKKYETCVNSVKPYDLTDCRPHRDALNDCAHEVNREQIYQKYRMMYLRGELLRLHESRLGQKMETMKVRAPDSIRGWKPDYAPKYAEMMSDIGLNLGPEAADERKLS | not soluble |
| MAHHHHHHMTADARTDDGGLRRAYTRSMPAVLRPLWLLEESMRDVQVQWEEIIEGVMVEDVSFSSVRAAVLHVERLASQLKAIKQELMPRLSHFSQKEEDSEQPFLRYCSCAAKPTVNGDNSICDLAQGEQTQAARLAARVWVWGVCVGTIMNDLELLSTSLSFAASTCLLEKFAEEVRLTEASTFFLGKDEGVASPLSDSDLLLACQLLYHLFTGDDAAAEMTCHRVLSLIDDCEERDDGKECRGCILSRLVRIAECVAAEDYGALQVLMKVDFFTGVDTLCSLPPLIIFFTQMMLDTVVHRQLVQGCFQNVWRPVINVDRPARDESPSVPSEAMMNSFCSSSRLSFTTKRRLMTCCAVFRESLPPRVPWPIPEDLMDRCFRMGL | not soluble |
| MAHHHHHHMTDMELVEALNATEVPIARAVFLMISAVQDADAGDNKTWSCCHPDRSPAASPGSTTGWRSLRESPSGPAVIEVCYNDGADSFLTVKWVPMDKTHLVMITQRSDRERSHQPLNTSFCIEDEPLASLVLGQQTGSGASAAAMWTAESLGSALHRLRCLLQSAIGNTGRGSEQNEKFSAAQDSDCGRELPSPRRRNLVILNSTAVDPPLLLPLPCLPKAVCYLREWSRVLPAPVTAKRISSPVVEVLVWVAA | soluble |
| MAHHHHHHMTDVAEGHQSYANAFISEGDRTSAVRYLDLFLRLYEEYCDVAEVEANSRVLQAATVMQSNSHAPDLLSYVVSAAALGIGGTRALAPALASLPLKVLNLSECYLGDAGLRVLAETLSASSHSTGGLRVLELRGISASDGSSVALLVTALRSLQLLDVSSNRFGTRPPGFALLCAAMGYHPALREVHIADNMVSGCCESCVGAIAEWLVKASRACMLQHVDLRFNTLGLYRRGLYNTVVDGKEVQCTLYGFYPLVDALLLNNSIEVLEVGNNGFPPGVLDAIEAKLAVNKRTKKALQEYYTNHIDR | not soluble |
| MAHHHHHHMTGADPDMLGSSAPNRPALMEPSVAPSPTSSPPATNAHANGSNSNGAGNVPLSQSTWRDSAAGSQPHGHGMPSTVRAADAPGVTEEKQAEGAFGADVHYNPATEHDFAVRGGLDGGAEGEHNSAKKIRLNNVSHFKNVPSRLNVQRQSTEADLVPCTYCGRKFLPGRVQKHEDCCIDRSKPLTARKGGALPARPSTGAATPRLAKPTPAAPAVESAATGKAKFCGGCGCKKSEPDQKFCTECGHKL | soluble |
